Measurements from the nanobody polyreactivity screen of Harvey et al. (2022).

Experiment: yeast display, Sf9 membrane polyspecificity reagent, FACS + sequencing; frameworks hold sequencing errors
Method in brief: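 Synthetic nanobody libraries on Saccharomyces cerevisiae BJ5465 were galactose-induced for 36–48 hours, stained 1 hour at 4 °C with 10% biotinylated, detergent-solubilized Sf9 membrane reagent and enriched on streptavidin microbeads. FACS then separated cells into low and high (top ~1%) gates by anti-HA (expression) and streptavidin (reagent binding) fluorescence. Genes were colony-PCR amplified, MiSeq 2 × 250 sequenced and CDR-length filtered. A clone's polyreactivity label is that of its gate of origin.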

| Sequence | polyreactivity (PSR sort gate) |
| --- | --- |
| QVQLVESGGGLVQAGGSLRLSCAASGRIFYAYAMGWYRQAPGKERELVAGITYSGSSTYYADSVKGRFTISRDNAKNTVYLQMNSLKPEDTAVYYCAADLTRVLRYNYWGQGTQVSVSS | low polyreactivity |
| QVQLVESGGGLVQAGGSLRLSCAASGRIFYAYAMGWYRQAPGKEREMVAAISKGGGSTYYADSVKGRFTISRDNAKNSVYLQMNSLKPEDTAVYYCNAQQYPYHIKYDYWGQGSQVTVSS | low polyreactivity |
| QVQLVESGGGLVQAGGSLRLSCAASGRIFYAYAMGWYRQEPGKERELVASISGSGGSTYYADSVKGRFTISRDNAKNTVYLQMNRLKPEDTAVYYCAKRYPFYSSGLSTYNYWGQGTQVTVSS | high polyreactivity |
| QVQLVESGGGLVQAGGSLRLSCAASGRIFYDNVMGWYRQAPGKERDLVAAISRSGGDTYYADSVKVRFTISRDNAKNTVYLQMNSLKPEDTAVYYCAADIYAFSGLYYYWGQGTQVTVSS | high polyreactivity |
| QVQLVESGGGLVQAGGSLRLSCAASGRIFYDYAMGGSRQAPGKERELVAAISKGGGSTYYADSVKGRFTISRDNAKNTVYLQMYSLKPEDTAVYYCAASSSLTTDTLYDYWGQGTQVTVSS | low polyreactivity |
| QVQLVESGGGLVQAGGSLRLSCAASGRIFYDYAMGWYRQAPGKEWELVAAISGSGGSTYYADSVKGRFTISRDNAKNTVYLQMNSLKPEDTAVYYCNRYTTRYYPGGDYWGQGTQVTVSS | high polyreactivity |
| QVQLVESGGGLVQAGGSLRLSCAASGRIFYDYAMGWYRQAPGKQREFVAAIRWRGGSTYYADSVKGRFTISRDNAMNTVYLQMNSLKPEDTAVYYCATKSYYKFGYWGQGSQVTVSS | high polyreactivity |
| QVQLVESGGGLVQAGGSLRLSCAASGRIFYDYTMGWYRQEPGKERELVAAINSGGGSTYYADSVKGRFTISRDNAKNTVYLQMNSLKPEVSAVYYCNADGQWNIWEYDYWGQGTQVTVSS | high polyreactivity |
| QVQLVESGGGLVQAGGSLRLSCAASGRIFYEYAMGWYRQAPGKERELVAISTSGGNTYYADSVKGRFTISRDNAKNTVYLQMNSLKPEVTAVYYCAARLQYYPYYYWGQGTQVTVSS | high polyreactivity |
| QVQLVESGGGLVQAGGSLRLSCAASGRIFYFNAMGWYRQAPGKEWELVAVINSSGSTDYADSVKGRFTISRDNAKNTVYLQMNSLKPEDTAVYYCAAEVTPSGYGYWGQGTQVTVSS | low polyreactivity |
| QVQLVESGGGLVQAGGSLRLSCAASGRIFYFNAMGWYRQAPGQERELVADISSGGRTNYADSVKGRFTISRDNAKNTVYLQMNSLKPEDTAVYYCNAEPYTSSGGYRGYDFDSWGQGTQVTVSS | low polyreactivity |
| QVQLVESGGGLVQAGGSLRLSCAASGRIFYFNSMGWYRQAPGKEREFVAAISGSGGDTYYADSVKGRFTISRDIAKNTVYLQMNSLKPEDTAVYYCAAEVYTWGQGTQVTVSS | low polyreactivity |
| QVQLVESGGGLVQAGGSLRLSCAASGRIFYFNVMGWYRQAPGKVRELVAAIRWSVGTTYYADSVKGRFTISRDNAKNTVYLQMNSLKPEDTAVYYCAARRSFPLGTARMYYWGQGTQVTVSS | high polyreactivity |
| QVQLVESGGGLVQAGGSLRLSCAASGRIFYFYALGWYRQAPGKERELVAAIDSGGSTYYADSVKGRFTISRDNAKNTVYLQMNSLKPEDTAVYYCNADGFYSWLYDYWGQGTQVTVSS | low polyreactivity |
| QVQLVESGGGLVQAGGSLRLSCAASGRIFYFYAMGGYRQAPGKERELVAAISRRGGTTNYADSVKGRFTISRDNAKNTVYLQMNSLKPEDTAVYYCAADYQSVGGAEYDYWGQGTQVTVSS | high polyreactivity |
| QVQLVESGGGLVQAGGSLRLSCAASGRIFYFYAMGLYTQAPGKERELVAVISYGGDRTSYADSVKGRFTISRDNAKNTVYLQMNSLKPEDSAVYYCAARPFYRGYYYWGQGTQVTVSS | high polyreactivity |
| QVQLVESGGGLVQAGGSLRLSCAASGRIFYFYAMGWSRQAPGKERELVAAITGSAGGTYYADSVKGRFTISRDTAKNTVYLQMNSLKPEDTAVYYCAAKYYGNKRDLYYWGQGTQVTVSS | low polyreactivity |
| QVQLVESGGGLVQAGGSLRLSCAASGRIFYFYAMGWYRQAPGKERELVAAISTSGGSTYYADSVKGRFTISRDNAKNTVYLQMNSLKPEDTAVYYCAARFRYYGSEYDYWGQGTQVTVAS | low polyreactivity |
| QVQLVESGGGLVQAGGSLRLSCAASGRIFYFYAMGWYRQAPGKERELVASISSGGITNYADSVKGRFTISRDNAKNTVYLQMNSLKPEDTAVYYCAADYGYYSRLYYWGQGTQVTVSS | low polyreactivity |
| QVQLVESGGGLVQAGGSLRLSCAASGRIFYFYVMGWYRQAPGKEREFVAAISQSGGSTYYADSVKGRFTISRDNAKNTVYLQMNSLKPEDTAVYYCAADLKAWGRYYYWGQGTQVTVSS | low polyreactivity |
| QVQLVESGGGLVQAGGSLRLSCAASGRIFYGNAMGWYRQAPGKERELVAAIRRSGGSTYYAESVKGRVTISRDNAKNTVYLQMNSLKPEDTAVYYRNADAFNKISYVWYDYWGQGPQVTVSS | low polyreactivity |
| QVQLVESGGGLVQAGGSLRLSCAASGRIFYGNAMGWYRQAPGKERELVAAISSGTSTNYADSVKGRFTISRDNAKNTVYLEMNRLKPEDTAVYDCAAGSYSRYLYSLYFDFDYWGQGTQVTVSS | low polyreactivity |

| Sequence | polyreactivity (PSR sort gate) |
| --- | --- |
| QVQLVESGGGLVQAGGSLRLSCAASGRIFYGYAMGWYRQAPGKERDLVAGISYRGARTYYADSVKGRFTISRDNAKNTVYLQMTSLKPEDTAVYYCNAVPYYPFAFGALDYWGQGTQVTVSS | high polyreactivity |
| QVQLVESGGGLVQAGGSLRLSCAASGRIFYGYAMGWYRQAPGKERELVAAIRTSGGSTYYADSVKGRFTISRDNAKNTVYLQMNSLKPEDTAVYYCNAGIVPRNRYYTPYNYWGQGTQVTVSS | low polyreactivity |
| QVQLVESGGGLVQAGGSLRLSCAASGRIFYGYAMGWYRQAPGKERELVAAITYSGGITYYADSVKGRFTISRDNAKNTVYLQMNSLKPEDTAVYYCATSKSSVTGPDLDYWGQGTQVTVSS | high polyreactivity |
| QVQLVESGGGLVQAGGSLRLSCAASGRIFYGYSMGWSRQATGKEWELVAAISSSGGSTYYADSVKGRFTISRDNAKNTVSLQRNSVKPEDTAVYYCNAQRYRPGYWYDYWGQGTQVTVSS | high polyreactivity |
| QVQLVESGGGLVQAGGSLRLSCAASGRIFYGYTMGWYRQAPGKERELVAAISWSGGSTSYADSVKGRFTISRDNAKNTVYLQMNSLKPEDTAVYYCDVRYPGYRLYWGYTYDYWGQGTQVTVSS | high polyreactivity |
| QVQLVESGGGLVQAGGSLRLSCAASGRIFYHNVMGWYRQAPGKERELVAGIRSRGGSTSYADSVKGRFTISRDNAKNTVYLQMNSLKPEDTAVYYCATDTTLWYVLYDYWGQGTQVTVSS | low polyreactivity |
| QVQLVESGGGLVQAGGSLRLSCAASGRIFYINAMGWYRQAPGKERELVAAITEGGVSTYYADSVKGRFTISRDNAMNTVYLQMNSLKPEDTAVYYCNTTGGTDGIVIYEYWGQGTQVTVSS | low polyreactivity |
| QVQLVESGGGLVQAGGSLRLSCAASGRIFYINAMGWYRQAPGKERELVAAITGGDGSTTYADSVKGRFTISRDNAKNTVYLQMNSLKPEDTAVYYCNAVTARKYAESQFDHWGQGTQVTVSS | low polyreactivity |
| QVQLVESGGGLVQAGGSLRLSCAASGRIFYIYAMGWSRQAPGKERELVASITSSGTSTYADSVKGRFTISRDNAKNTVYLQMNSLKPEDTAVYYCNARGYPKSWRYSRGYEYWGQGTQVTVSS | low polyreactivity |
| QVQLVESGGGLVQAGGSLRLSCAASGRIFYKYAMGWYRPAPGKERELVASITRSGTSTDYADSVKGRFTISRDNAKNTVYLQMNSLKPEDTADYYCAKRFFSLNGYGYDYWGLGTQVTVSS | high polyreactivity |
| QVQLVESGGGLVQAGGSLRLSCAASGRIFYKYAMGWYRQAPGKERELVAAISYSGGSTYYADSMKGRFTLSRDNAKNTVYLQMNSLTPEDTAVYYCATRRREAGIEYDYWGQGTQVTVSS | high polyreactivity |
| QVQLVESGGGLVQAGGSLRLSCAASGRIFYLKAMGWYRQAPGTERELVAAINTSGDSTYYADSVKGRFTISRDNAKNTVDLQMNSLKPEDTAVSYCAAYVIGPDQFIYDYWGQGTQVTVSS | low polyreactivity |
| QVQLVESGGGLVQAGGSLRLSCAASGRIFYLNVMGWYRQAPGKERELVAAITRRDVTTYADSVKGRFTISRDNAKNTVYLQMNSLKPEDTAVYYCNAVYYNWIGFDYWGQGTQVSVSS | low polyreactivity |
| QVQLVESGGGLVQAGGSLRLSCAASGRIFYLYAMGWYRQAPGKERELVAAISRSGGSTYYADSVKGRFTISRDNAKNTVYLQMNSLKPEDTAVYYCNTVWYFSSRTRLHDYWGQGTQVTVSS | high polyreactivity |
| QVQLVESGGGLVQAGGSLRLSCAASGRIFYLYVMGWYRQAPGKERELVAAISIGSTTNYADSVKGRFTISRDNAKNTVYLQMNSLKPEDTAVYYCNARDGPPFYDYWGQRTQVTVSS | low polyreactivity |
| QVQLVESGGGLVQAGGSLRLSCAASGRIFYMNAMGWYRQAPGKERELVAGITNSTTGTYYADSVKGRFTISRDNAKNTVYLQMNSLKPEDTAVYYCNTDVAYEEPVETYDYWGQGTQVTVSS | low polyreactivity |
| QVQLVESGGGLVQAGGSLRLSCAASGRIFYNAMGWYRQAPGKERELVAAITSNGGSTYYADSVKGRFTISRDNAKNTVYLQMNSLKPEDTAVYYCNAAIRYTASATHAFDYWGQGTQVTVSS | low polyreactivity |
| QVQLVESGGGLVQAGGSLRLSCAASGRIFYNYAMGWYRQAPGKERELVAAISGSGGSTYYADSVKGRFTISRDNAKNSVYLQMNSLKPEDTAVYYCSTSGPQYYSRNFDYWGQGTQVTVSS | low polyreactivity |
| QVQLVESGGGLVQAGGSLRLSCAASGRIFYNYAMGWYRQAPGKERELVAAITGGASTYADSVKGRFTISRDNAKNTVYLQMNRLKPEDTAVYYCAVDYYTYSLASGRTRMDYWGQGTQVTVSS | high polyreactivity |
| QVQLVESGGGLVQAGGSLRLSCAASGRIFYNYAMGWYRQAPGKERELVAAITRRAGRTYYADSVKGRFTISRDNAKNTVYLQMNSLKPEDTAVFYCAKDEPGSSRVLYDYWGQVTQVTVSS | low polyreactivity |
| QVQLVESGGGLVQAGGSLRLSCAASGRIFYNYDMGWYRQAPGKERELVAAITSGGNTYADSVKGRFTISRDNAKNTVYLQMNSLKPEDTAVYYCNARDKFYVPSQYAYDYWGQGTQVTVSS | low polyreactivity |
